Series [1] concerns the target T1, SARS-CoV-2 spike protein trimer (SARS-CoV-2, UniProt P0DTC2). The series can be described thus: ELONA. The protocol:
One ELONA plate (immobilised with the S1 binding aptamer A3) was then incubated with a fixed concentration (0.5 μM) of either the aptamer population isolated against the S2 subunit of the SARS-CoV-2 spike protein (S2_8R pool) or full-length aptamer clones S2_A2 (SEQ ID NO: 146), S2_B1 (SEQ ID NO: 150) and S2_G1 (SEQ ID NO: 171) (FIG. 16).

The target in series [2] is SARS-CoV-2 spike S2 subunit (SARS-CoV-2, UniProt P0DTC2 SEQ:1-528). Nature of the series: BLI. The conditions noted are these: label: 5'-biotin.
The target in series [3] is T1, SARS-CoV-2 spike protein trimer. The series can be described thus: BLI. The conditions noted are these: label: 5'-biotin. The source says: The aptamers described herein have been isolated using recombinant proteins which represent portions of the full viral surface spike protein (SEQ ID NO: 117). In particular, an amino acid sequence comprising residues Ser686 to Pro1213 of SEQ ID NO: 119 was used to isolate aptamers against the S2 subunit from the SARS-CoV-2 spike protein. For diagnostic and therapeutic applications of the aptamers, it is desirable that the aptamers are capable of binding to the spike protein in the full trimeric form. For example, any aptamers which bind to regions of the monomer which are not accessible in the trimeric spike may not be capable of binding to the virus and so would be less likely to perform well as a diagnostic or therapeutic. Several of the isolated aptamers and Optimers isolated against the S2 subunit of the SARS-CoV-2 spike protein (SEQ ID NO:119), were assessed for binding to the full trimeric spike using the BLI assay described above. Briefly, exemplar Optimers were immobilised onto BLI sensor probes and assessed for the ability to bind to the full SARS-CoV-2 spike protein trimer at a range of concentrations (500 nM, 166 nM, 55 nM, 18.5 nM, 6.1 nM, 2 nM and 0.6 nM in 1× ‘high salt’ aptamer selection buffer). […] Importantly, each of the S2_A2_F12 SEQ ID NO: 179), S2_B1_F12 SEQ ID NO: 188) and S2_G1_F21 (SEQ ID NO: 190) aptamers has a rapid association rate (0-120 sec) and a slow dissociation rate (120-240 sec); which may be important for many diagnostic applications.

A further series addresses SARS-CoV-2 spike RBD (SARS-CoV-2, UniProt P0DTC2 SEQ:1-223). The series can be described thus: BLI. The conditions noted are these: tags: His tag, SinoBiological 40592-V08H; label: 5'-biotin.
Series [4] deals with T2, SARS-CoV spike S1 subunit (SARS-CoV, UniProt P59594 SEQ:14-667). The series can be described thus: BLI. As to conditions: tags: SinoBiological; label: 5'-biotin.
The target of series [5] is T3, SARS-CoV-2 spike S1 subunit (SARS-CoV-2, UniProt P0DTC2 SEQ:1-670). Nature of the series: BLI. As to conditions: tags: His tag, SinoBiological 40591-V08B1; label: 5'-biotin. The method, then: The affinity of four chosen aptamers (aptamer S1_A3-A (SEQ ID NO: 4); aptamer S1_A6 (SEQ ID NO: 8); aptamer S1_A8 (SEQ ID NO: 9); aptamer S1_F2 (SEQ ID NO: 43)) was determined using the BLI assay according to the protocol described above. The biotinylated aptamers were immobilised onto streptavidin biosensor probes (as described above) and then interaction monitored with a concentration series of SARS-CoV-2 Spike protein S1 (250 nM, 125 nM, 62.5 nM, 31.25 nM, 15.63 nM, 7.81 nM, 0 nM diluted in 1× ‘high salt’ aptamer selection buffer). KD values were calculated using the ForteBio software (ForteBio Data Analysis 8.0,), using a 2:1 binding model (FIGS. 6 & 7).

Series [6] has as its target T3, SARS-CoV-2 spike S1 subunit. The series can be described thus: BLI. The conditions noted are these: tags: His tag, SinoBiological 40591-V08B1; label: 5'-biotin. The source holds these as a separate data set.
The target of series [7] is T2, SARS-CoV spike S1 subunit. Nature of the series: ELONA. As to conditions: tags: SinoBiological; label: 5'-biotin.

B1: S2_G1 (ssDNA)
DNA: CCAGTGTAGACTACTCAATGCGGCTGTGTGACTTGACCTCTGGATATGGGTGGGAGGGATGGGTACTATCCACAGGTCAACC
B1: the binding result in series [1] and in series [2] was “binds” each time.

B2: S2_B1 (ssDNA)
DNA: CCAGTGTAGACTACTCAATGCCGTGGACTGGTCGGGTTTGGATTCGGCAGATGAATCAGTAGTACTATCCACAGGTCAACC
Consider B2, for which the binding result in series [1] and in series [2] was “binds” each time.
On to AATGCCGTGGACTGGTCGGGTTTGGATTCGGCA (ssDNA) [S2_B1_F18], for which the binding result in series [3] and in series [2] was “binds” throughout.
For AATGCCGATGGGTCGGGGGGGTGGG (ssDNA) [S2_A2_F17], the binding result in series [3] and in series [2] was “binds” each time.

B3: S2_A2 (ssDNA)
DNA: CCAGTGTAGACTACTCAATGCCGATGGGTCGGGGGGGTGGGTAGGCATTGATCGCTCCTTTCGTACTATCCACAGGTCAACC
For B3, the binding result in series [1] and in series [2] was “binds” throughout.

B4: S1_A3-A (ssDNA)
DNA: CCAGTGTAGACTACTCAATGCGTGGGAAGGGTGGGTGGGAGCATTGATAACTCGGAGGAGTGTACTATCCACAGGTCAACC
Take B4: the binding result with SARS-CoV-2 spike RBD is given as “binds”; in series [4], “no binding”; in series [5] it was “binds”; in series [1] (label: 5' biotin), “binds”.
With TGGATATGGGTGGGAGGGATGGGT (ssDNA) [S2_G1_F22], the binding result in series [3] and in series [2] was “binds” each time.
As for AATGCGTGGGAAGGGTGGGTGGGAGCATTGATA (ssDNA) [S1_A3_F18], the binding result in series [6] is given as “binds”; in series [7], “no binding”.

The values are drawn from patent publication US20230228751 (APTAMER DIAGNOSTICS LIMITED, published 2023).
